Data reported in paper PMC8178401.

Columns and labels:
[1] = molecular target: MsSepF_(core) (C-terminal FtsZ-binding core of Methanobrevibacter smithii SepF, residues 54-149) (Methanobrevibacter smithii); test: not stated; MsSepFcore in solution (Supplementary Fig. 6); method not given
[2] = molecular target: MsSepF_(core) (C-terminal FtsZ-binding core of Methanobrevibacter smithii SepF, residues 54-149) (Methanobrevibacter smithii); test: SPR; Biacore T200, 25 °C, 150 mmol/L NaCl, 25 mmol/L Hepes pH 8; MsSepFcore amine-coupled on CM5 (3200 and 5000 RU), FtsZCTD peptide flowed over; steady-state fit; apparent Kd

MsSepF_(core) (C-terminal FtsZ-binding core of Methanobrevibacter smithii SepF, residues 54-149) (Methanobrevibacter smithii), sequence (main, as listed by the source): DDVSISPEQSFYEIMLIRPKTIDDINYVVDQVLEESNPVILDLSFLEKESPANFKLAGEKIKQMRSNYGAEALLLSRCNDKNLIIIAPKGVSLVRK

| stoichiometry N [1] | Kd [2] [µM] | Molecule |
| --- | --- | --- |
| 2 |  | MsSepF_(core) (C-terminal FtsZ-binding core of Methanobrevibacter smithii SepF, residues 54-149) (domain or fragment) |
|  | 84 | NEDQLDDFIDGIF [FtsZCTD peptide (C-terminal domain of Methanobrevibacter smithii FtsZ)] |
